In patent US20250092426, “CAS ENDONUCLEASES AND RELATED METHODS” (Flagship Pioneering Innovations VII, LLC, published 2025):

Target: T1, CasEnd-5 (synthetic construct)
T1 chain: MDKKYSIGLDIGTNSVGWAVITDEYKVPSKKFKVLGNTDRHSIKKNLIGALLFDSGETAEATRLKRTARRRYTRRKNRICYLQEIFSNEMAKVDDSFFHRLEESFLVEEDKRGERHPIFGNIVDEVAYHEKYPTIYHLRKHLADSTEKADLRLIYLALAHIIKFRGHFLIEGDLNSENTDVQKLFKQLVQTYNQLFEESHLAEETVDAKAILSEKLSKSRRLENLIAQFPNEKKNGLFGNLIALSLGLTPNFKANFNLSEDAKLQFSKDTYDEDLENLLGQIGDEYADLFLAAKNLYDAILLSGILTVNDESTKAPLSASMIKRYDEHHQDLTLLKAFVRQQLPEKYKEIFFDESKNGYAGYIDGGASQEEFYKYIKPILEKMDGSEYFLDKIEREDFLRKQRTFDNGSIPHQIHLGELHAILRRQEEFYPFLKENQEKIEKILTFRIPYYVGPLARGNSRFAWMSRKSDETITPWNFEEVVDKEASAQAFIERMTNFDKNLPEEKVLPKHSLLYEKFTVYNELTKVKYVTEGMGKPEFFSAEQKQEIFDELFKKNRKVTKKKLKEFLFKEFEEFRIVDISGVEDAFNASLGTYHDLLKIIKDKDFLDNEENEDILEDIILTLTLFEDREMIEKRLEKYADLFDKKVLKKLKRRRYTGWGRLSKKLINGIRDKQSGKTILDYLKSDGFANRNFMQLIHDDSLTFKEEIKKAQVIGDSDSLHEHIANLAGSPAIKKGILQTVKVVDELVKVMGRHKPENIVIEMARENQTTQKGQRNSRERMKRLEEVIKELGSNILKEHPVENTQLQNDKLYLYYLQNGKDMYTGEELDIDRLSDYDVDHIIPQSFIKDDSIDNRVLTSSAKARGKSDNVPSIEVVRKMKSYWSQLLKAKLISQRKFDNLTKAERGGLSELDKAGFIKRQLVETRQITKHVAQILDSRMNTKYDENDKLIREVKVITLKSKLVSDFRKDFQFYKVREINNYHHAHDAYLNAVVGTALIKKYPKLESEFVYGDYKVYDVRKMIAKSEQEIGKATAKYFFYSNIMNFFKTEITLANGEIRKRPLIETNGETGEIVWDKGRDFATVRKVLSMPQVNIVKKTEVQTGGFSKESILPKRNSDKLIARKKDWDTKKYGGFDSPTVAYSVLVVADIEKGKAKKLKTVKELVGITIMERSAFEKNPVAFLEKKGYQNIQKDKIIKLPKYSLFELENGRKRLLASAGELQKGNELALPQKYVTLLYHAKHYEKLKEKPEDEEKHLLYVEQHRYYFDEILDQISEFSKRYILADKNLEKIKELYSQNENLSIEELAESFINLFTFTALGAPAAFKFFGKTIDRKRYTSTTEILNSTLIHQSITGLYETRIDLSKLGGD
Assay: cell_activity; +++; HEK293T; PAM not stated
Procedure, shortened: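 Editing activity was scored as the fraction of GFP+ cells on day 4 by flow cytometry. BFP-expressing HEK293T cells (250,000) received by nucleofection 200 ng plasmid for the RT-Cas fusion protein and 200 ng template RNA plasmid designed to convert BFP to GFP.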

B1: BFP-to-GFP template RNA ; BFP reporter protospacer (ssRNA ; dsDNA)
RNA: GCCGAAGCACUGCACGCCGUGUUUUAGAGCUAGAAAUAGCAAGUUAAAAUAAGGCUAGUCCGUUAUCAACUUGAAAAAGUGGCACCGAGUCGGUGCACCCUGACGUACGGCGUGCAGUGCUU
DNA 1: GCCGAAGCACTGCACGCCGT
DNA 2: ACGGCGTGCAGTGCTTCGGC
activity: ≥ 100 % of reference
